According to article PMC10709652, “The separation pin distinguishes the pro– and anti–recombinogenic functions of Saccharomyces cerevisiae Srs2” (Nature Communications, 2023):

B1: Srs2^898 (GFP-Srs2 1-898) (Saccharomyces cerevisiae S288C) (protein)
chain: MSSNNDLWLHLVSQLNTQQRAAALFDYTRGLQVIAGPGTGKTKVLTSRVAYLILHHHIHPRDIIVTTFTNKAANEMKERLQEMLRGAGVNISELLIGTFHSICLKILYRFGHLVDLQKDWRIIDEKEIDVILDDMIEKVPDQIRDYASSITRKVNLCMPSKNGDEWTIHPKLIKKQISKLKSNAILPEEYILDSNHDAALGYFYQIYQSELSKKNTLDFDDLLMYTFRLLTRVRVLSNIKHVLVDEFQDTNGIQLDLMFLFAKGNHHLSRGMTIVGDPDQSIYAFRNALAHNFLEMGRKCPIEYSTIILVENYRSSQKILNTSEILITQQNKGRQNRAPLRAQFDLDFPPVYMNFPAYFLEAPSLVRELLYLKALPNLFTFNDFAILVRQRRQIKRIESALIEHRIPYKIIRGHSFWDSKETRAMLNLLKLIFSPNDKHAILASLLYPARGLGPATGEKIKNALDTLATDVSCFQILKDISSKKIMLDIPTKGRSVIADFISMIENCQLLLQSTLLGGLSDLFDKLYELSGLKYEYLYKDGKKKNDQLEKSEPNLLNARHKNIELLKNYFLALLSKSESSDKEKNEAIKAATDEAEPIENKVITPKEYLRNFFNSLSLHSDAAEEEESESNKDAKIKREKNGFVTISTIHGAKGLEWPVVFIPGCEEGIIPCVFNDDKKDESEEDEEEDQENSKKDASPKKTRVLSVEDSIDEERRMFFVAQTRAKYLLYLSNTVTVEDVDRPRIASRFLTTDLIKAMSDSQKLFESTNSIKKLYRILNKKPPAEDDKLFSLDQLRKDYNQFIENRRERMIWQGIQMNDVYGIQLSRNKLLGSVSDFTSAADQLRLETQNSIFPQKKLIEKSRPSKINGNYAPKSRVKSPEKRYAPETTSFHSPTKKK
notes: residues 1-898 of 1174 (C-terminal 276 residues omitted), N-terminal GFP tag kept, pET15b, Talon purified; expressed in E. coli Rosetta2 (DE3)
B2: Srs2^898 (GFP-Srs2 1-898) (Saccharomyces cerevisiae S288C; F219A) (protein)
chain: MSSNNDLWLHLVSQLNTQQRAAALFDYTRGLQVIAGPGTGKTKVLTSRVAYLILHHHIHPRDIIVTTFTNKAANEMKERLQEMLRGAGVNISELLIGTFHSICLKILYRFGHLVDLQKDWRIIDEKEIDVILDDMIEKVPDQIRDYASSITRKVNLCMPSKNGDEWTIHPKLIKKQISKLKSNAILPEEYILDSNHDAALGYFYQIYQSELSKKNTLDADDLLMYTFRLLTRVRVLSNIKHVLVDEFQDTNGIQLDLMFLFAKGNHHLSRGMTIVGDPDQSIYAFRNALAHNFLEMGRKCPIEYSTIILVENYRSSQKILNTSEILITQQNKGRQNRAPLRAQFDLDFPPVYMNFPAYFLEAPSLVRELLYLKALPNLFTFNDFAILVRQRRQIKRIESALIEHRIPYKIIRGHSFWDSKETRAMLNLLKLIFSPNDKHAILASLLYPARGLGPATGEKIKNALDTLATDVSCFQILKDISSKKIMLDIPTKGRSVIADFISMIENCQLLLQSTLLGGLSDLFDKLYELSGLKYEYLYKDGKKKNDQLEKSEPNLLNARHKNIELLKNYFLALLSKSESSDKEKNEAIKAATDEAEPIENKVITPKEYLRNFFNSLSLHSDAAEEEESESNKDAKIKREKNGFVTISTIHGAKGLEWPVVFIPGCEEGIIPCVFNDDKKDESEEDEEEDQENSKKDASPKKTRVLSVEDSIDEERRMFFVAQTRAKYLLYLSNTVTVEDVDRPRIASRFLTTDLIKAMSDSQKLFESTNSIKKLYRILNKKPPAEDDKLFSLDQLRKDYNQFIENRRERMIWQGIQMNDVYGIQLSRNKLLGSVSDFTSAADQLRLETQNSIFPQKKLIEKSRPSKINGNYAPKSRVKSPEKRYAPETTSFHSPTKKK
notes: as for B1
B3: Srs2^898 (GFP-Srs2 1-898) (Saccharomyces cerevisiae S288C; R389A) (protein)
chain: MSSNNDLWLHLVSQLNTQQRAAALFDYTRGLQVIAGPGTGKTKVLTSRVAYLILHHHIHPRDIIVTTFTNKAANEMKERLQEMLRGAGVNISELLIGTFHSICLKILYRFGHLVDLQKDWRIIDEKEIDVILDDMIEKVPDQIRDYASSITRKVNLCMPSKNGDEWTIHPKLIKKQISKLKSNAILPEEYILDSNHDAALGYFYQIYQSELSKKNTLDFDDLLMYTFRLLTRVRVLSNIKHVLVDEFQDTNGIQLDLMFLFAKGNHHLSRGMTIVGDPDQSIYAFRNALAHNFLEMGRKCPIEYSTIILVENYRSSQKILNTSEILITQQNKGRQNRAPLRAQFDLDFPPVYMNFPAYFLEAPSLVRELLYLKALPNLFTFNDFAILVAQRRQIKRIESALIEHRIPYKIIRGHSFWDSKETRAMLNLLKLIFSPNDKHAILASLLYPARGLGPATGEKIKNALDTLATDVSCFQILKDISSKKIMLDIPTKGRSVIADFISMIENCQLLLQSTLLGGLSDLFDKLYELSGLKYEYLYKDGKKKNDQLEKSEPNLLNARHKNIELLKNYFLALLSKSESSDKEKNEAIKAATDEAEPIENKVITPKEYLRNFFNSLSLHSDAAEEEESESNKDAKIKREKNGFVTISTIHGAKGLEWPVVFIPGCEEGIIPCVFNDDKKDESEEDEEEDQENSKKDASPKKTRVLSVEDSIDEERRMFFVAQTRAKYLLYLSNTVTVEDVDRPRIASRFLTTDLIKAMSDSQKLFESTNSIKKLYRILNKKPPAEDDKLFSLDQLRKDYNQFIENRRERMIWQGIQMNDVYGIQLSRNKLLGSVSDFTSAADQLRLETQNSIFPQKKLIEKSRPSKINGNYAPKSRVKSPEKRYAPETTSFHSPTKKK
notes: as for B1
B4: Srs2^898 (GFP-Srs2 1-898) (Saccharomyces cerevisiae S288C; N70A) (protein)
chain: MSSNNDLWLHLVSQLNTQQRAAALFDYTRGLQVIAGPGTGKTKVLTSRVAYLILHHHIHPRDIIVTTFTAKAANEMKERLQEMLRGAGVNISELLIGTFHSICLKILYRFGHLVDLQKDWRIIDEKEIDVILDDMIEKVPDQIRDYASSITRKVNLCMPSKNGDEWTIHPKLIKKQISKLKSNAILPEEYILDSNHDAALGYFYQIYQSELSKKNTLDFDDLLMYTFRLLTRVRVLSNIKHVLVDEFQDTNGIQLDLMFLFAKGNHHLSRGMTIVGDPDQSIYAFRNALAHNFLEMGRKCPIEYSTIILVENYRSSQKILNTSEILITQQNKGRQNRAPLRAQFDLDFPPVYMNFPAYFLEAPSLVRELLYLKALPNLFTFNDFAILVRQRRQIKRIESALIEHRIPYKIIRGHSFWDSKETRAMLNLLKLIFSPNDKHAILASLLYPARGLGPATGEKIKNALDTLATDVSCFQILKDISSKKIMLDIPTKGRSVIADFISMIENCQLLLQSTLLGGLSDLFDKLYELSGLKYEYLYKDGKKKNDQLEKSEPNLLNARHKNIELLKNYFLALLSKSESSDKEKNEAIKAATDEAEPIENKVITPKEYLRNFFNSLSLHSDAAEEEESESNKDAKIKREKNGFVTISTIHGAKGLEWPVVFIPGCEEGIIPCVFNDDKKDESEEDEEEDQENSKKDASPKKTRVLSVEDSIDEERRMFFVAQTRAKYLLYLSNTVTVEDVDRPRIASRFLTTDLIKAMSDSQKLFESTNSIKKLYRILNKKPPAEDDKLFSLDQLRKDYNQFIENRRERMIWQGIQMNDVYGIQLSRNKLLGSVSDFTSAADQLRLETQNSIFPQKKLIEKSRPSKINGNYAPKSRVKSPEKRYAPETTSFHSPTKKK
notes: as for B1
B5: Srs2^898 (GFP-Srs2 1-898) (Saccharomyces cerevisiae S288C; Y283A) (protein)
chain: MSSNNDLWLHLVSQLNTQQRAAALFDYTRGLQVIAGPGTGKTKVLTSRVAYLILHHHIHPRDIIVTTFTNKAANEMKERLQEMLRGAGVNISELLIGTFHSICLKILYRFGHLVDLQKDWRIIDEKEIDVILDDMIEKVPDQIRDYASSITRKVNLCMPSKNGDEWTIHPKLIKKQISKLKSNAILPEEYILDSNHDAALGYFYQIYQSELSKKNTLDFDDLLMYTFRLLTRVRVLSNIKHVLVDEFQDTNGIQLDLMFLFAKGNHHLSRGMTIVGDPDQSIAAFRNALAHNFLEMGRKCPIEYSTIILVENYRSSQKILNTSEILITQQNKGRQNRAPLRAQFDLDFPPVYMNFPAYFLEAPSLVRELLYLKALPNLFTFNDFAILVRQRRQIKRIESALIEHRIPYKIIRGHSFWDSKETRAMLNLLKLIFSPNDKHAILASLLYPARGLGPATGEKIKNALDTLATDVSCFQILKDISSKKIMLDIPTKGRSVIADFISMIENCQLLLQSTLLGGLSDLFDKLYELSGLKYEYLYKDGKKKNDQLEKSEPNLLNARHKNIELLKNYFLALLSKSESSDKEKNEAIKAATDEAEPIENKVITPKEYLRNFFNSLSLHSDAAEEEESESNKDAKIKREKNGFVTISTIHGAKGLEWPVVFIPGCEEGIIPCVFNDDKKDESEEDEEEDQENSKKDASPKKTRVLSVEDSIDEERRMFFVAQTRAKYLLYLSNTVTVEDVDRPRIASRFLTTDLIKAMSDSQKLFESTNSIKKLYRILNKKPPAEDDKLFSLDQLRKDYNQFIENRRERMIWQGIQMNDVYGIQLSRNKLLGSVSDFTSAADQLRLETQNSIFPQKKLIEKSRPSKINGNYAPKSRVKSPEKRYAPETTSFHSPTKKK
notes: as for B1
B6: Srs2^898 (GFP-Srs2 1-898) (Saccharomyces cerevisiae S288C; H100A) (protein)
chain: MSSNNDLWLHLVSQLNTQQRAAALFDYTRGLQVIAGPGTGKTKVLTSRVAYLILHHHIHPRDIIVTTFTNKAANEMKERLQEMLRGAGVNISELLIGTFASICLKILYRFGHLVDLQKDWRIIDEKEIDVILDDMIEKVPDQIRDYASSITRKVNLCMPSKNGDEWTIHPKLIKKQISKLKSNAILPEEYILDSNHDAALGYFYQIYQSELSKKNTLDFDDLLMYTFRLLTRVRVLSNIKHVLVDEFQDTNGIQLDLMFLFAKGNHHLSRGMTIVGDPDQSIYAFRNALAHNFLEMGRKCPIEYSTIILVENYRSSQKILNTSEILITQQNKGRQNRAPLRAQFDLDFPPVYMNFPAYFLEAPSLVRELLYLKALPNLFTFNDFAILVRQRRQIKRIESALIEHRIPYKIIRGHSFWDSKETRAMLNLLKLIFSPNDKHAILASLLYPARGLGPATGEKIKNALDTLATDVSCFQILKDISSKKIMLDIPTKGRSVIADFISMIENCQLLLQSTLLGGLSDLFDKLYELSGLKYEYLYKDGKKKNDQLEKSEPNLLNARHKNIELLKNYFLALLSKSESSDKEKNEAIKAATDEAEPIENKVITPKEYLRNFFNSLSLHSDAAEEEESESNKDAKIKREKNGFVTISTIHGAKGLEWPVVFIPGCEEGIIPCVFNDDKKDESEEDEEEDQENSKKDASPKKTRVLSVEDSIDEERRMFFVAQTRAKYLLYLSNTVTVEDVDRPRIASRFLTTDLIKAMSDSQKLFESTNSIKKLYRILNKKPPAEDDKLFSLDQLRKDYNQFIENRRERMIWQGIQMNDVYGIQLSRNKLLGSVSDFTSAADQLRLETQNSIFPQKKLIEKSRPSKINGNYAPKSRVKSPEKRYAPETTSFHSPTKKK
notes: as for B1

What follows are proteins tested on Nc1ncnc2c1ncn2[C@@H]1O[C@H](COP(=O)(O)OP(=O)(O)OP(=O)(O)O)[C@@H](O)[C@H]1O (assay: ATP hydrolysis, gamma-32P-ATP, thin layer chromatography). Conditions: M13 ssDNA 2.5 µM (nucleotides), 2 mM MgCl2, 100 mM KCl, pH 7.6, 30 °C, 40 nM protein.
Assay type: biochemical, Saccharomyces cerevisiae
For B1, the Km was 1580 ± 710 µM and the kcat was 51 ± 8 s⁻¹.

Substrate: Nc1ncnc2c1ncn2[C@@H]1O[C@H](COP(=O)(O)OP(=O)(O)OP(=O)(O)O)[C@@H](O)[C@H]1O
Assay: as above
Assay type: biochemical, Saccharomyces cerevisiae
Conditions: M13 ssDNA 2.5 µM (nucleotides), 2 mM MgCl2, 100 mM KCl, pH 7.6, 30 °C, 40 nM protein
Remark: another data set of the same source
Text: ATP hydrolysis, gamma-32P-ATP, thin layer chromatography on Srs2^898 (GFP-Srs2 1-898) | N70A, H100A, F219A, Y283A, R268A, and R389A mutant proteins were all moderately affected
Protein B2 has a Km of 1510 ± 660 µM and a kcat of 42 ± 6 sec–1.
In the case of B3, the Km is reported as 1600 ± 720 µM and the kcat is reported as 44 ± 7 sec–1.
B4 gave a Km of 1320 ± 670 µM and a kcat of 47 ± 7 sec–1.
For B5, the Km was 1520 ± 630 µM and the kcat was 44 ± 6 sec–1.
B6 showed a Km of 1330 ± 710 µM and a kcat of 45 ± 8 sec–1.
